Source: patent publication US20170369590A1 (Genmab, published 2017)
Substitutions are numbered along the chain they refer to.

B1: HuMab 025 (antibody, V domains shown)
VH: QVQLQQWGAGLLKPSETLSLTCAVYGGSFSDYYWNWIRQPPGKGLEWIGEIHHSGSTNYNPSLKSRVTISVDTSKNQFSLKLSSVTAADTAVYYCARGYYDSGVYYFDYWAQGTLVTVSS
VL: DIQMTQSPSSLSASVGDRVTITCRASQGISRWLAWYQQKPEKAPKSLIYAASSLRSGVPSRFSGSGSGTDFTLTISSLQPEDFATYYCQQYNSYPITFGQGTRLEIK
notes: also called TH1014-025; PC1014-025
B2: HuMab 091 (antibody, V domains shown)
VH: QVQLQQWGAGLLKPSETLSLTCAVSGGSFSGYYWTWIRQPPGKGLEWIGEIYHSGDTNYNPSLKSRVTISVDTSKNQFSLKLYSVTAADTAVYYCARLYFGSGIYYLDYWGQGTLVTVSS
VL: B1 VL with R31S, A34V, R55Q, Y94F, I96P, R103K, L104V
notes: also called TH1014-091; PC1014-091
B3: HuMab 050 (antibody, V domains shown)
VH: EVQLLESGGGLVQPGGSLRLSCAASGFTFSSYAMNWVRQAPGKGLEWVSAISGRGGTTYYADSVKGRFTISRDNSKNTLYLQMSSLRAEDTAVYYCAKARANWDYFDYWGQGTLVTVSS
VL: B1 VL with L11V, R31S, Q38H, E41G, S46L, S53I, R55Q, Y91A, Y94F
notes: also called TH1014-050; PC1014-050
B4: HuMab 129 (antibody, V domains shown)
VH: QVQLVESGGGVVQPGRSLRLSCAASGFTFSTFAIHWVRQAPGKGLEWVAVISYDGGHKFYADSVKGRFTISRDNSKNTLYLQMNSLRAEDTAMYYCARGLGVWGAFDYWGQGTLVTVSS
VL: EIVLTQSPATLSLSPGERATLSCRASQSVSSYLAWYQQKPGQAPRLLIYDASNRATGIPARFSGSGSGTDFTLTISSLEPEDFAVYYCQQRSNWWTFGQGTKVEIK
B5: HuMab 169 (antibody, V domains shown)
VH: QVQLVQSGAEVKKPGASVKVSCKASGYTFTNYGISWVRQAPGQGLEWMGWLSAYSGNTIYAQKLQGRVTMTTDTSTTTAYMELRSLRSDDTAVYYCARDRIVVRPDYFDYWGQGTLVTVSS
VL: EIVLTQSPATLSLSPGERATLSCRASQSVSSYLAWYQQKPGQAPRLLIYDASNRATGIPARFSGSGSGTDFTLTISSLEPEDFAVYYCQQRSNWPRTFGQGTKVEIK
notes: also called TH1014-169; PC1014-169
B6: HuMab 084 (antibody, V domains shown)
VH: QVQLVQSGAEVKKPGSSVKVSCKASGGTFRTYAINWVRQAPGQGLEWMGRINTVLGIVNHAQKFQGRVTITADKSTNTAYMELNSLRSEDTAVYYCAREKGVDYYYGIEVWGQGTTVTVSS
VL: DIQMTQSPSSVSASVGDRVTITCRASQGISSWLAWYQHKPGKAPKLLIYVASTLQSGVPSRFSGSGSGTDFTLTISSLQPEDFATYYCQQANSFPLTFGGGTKVEIK
notes: also called TH1014-084; PC1014-084

Key:
[1] = target: T1, HER2ECDHis (human, UniProt P04626 23-653, biotinylated in the cross-block ELISA (sites not given)); experiment: ELISA; competitor 025
T1 construct: range 1-653; expressed in HEK-293F; also called soluble HER2; biotinylated HER2ECDHis

[2] = target: T1, HER2ECDHis; experiment: ELISA; competitor 091
Experimental: (§1) Next, the ELISA wells were washed with PBST (PBS supplemented with 0.05% Tween-20 [Sigma-Aldrich, Zwijndrecht, The Netherlands]) and blocked for one hour at room temperature (RT) with PBSTC (PBST supplemented 2% [v/v] chicken serum [Gibco, Paisley, Scotland]). The ELISA wells were then washed with PBST and incubated for one hour at RT with HER2ECDHis serially diluted in PBSTC (0.25-2 μg/mL in 2-fold dilutions). […] The plate was thereafter washed with PBST and incubated for one hour with 0.1 μg/mL Streptavidin-poly-HRP (Sanquin, Amsterdam, The Netherlands) diluted in PBST. After washing, the reaction was visualized through a 15 minutes incubation with 2,2′-azino-bis (3-ethylbenzothiazoline-6-sulfonic acid) (ABTS: one ABTS tablet diluted in 50 mL ABTS buffer (Roche Diagnostics, Almere, The Netherlands)) at RT protected from light. The colorization was stopped by adding an equal volume of oxalic acid (Sigma-Aldrich, Zwijndrecht, The Netherlands). Fluorescence at 405 nm was measured on a microtiter plate reader (Biotek Instruments, Winooski, USA).
(§2) Each HER2 antibody was coated to the ELISA wells at the sub-optimal dose that was determined as described above. After blocking of the ELISA wells, the wells were incubated with the predetermined concentration of 1 μg/mL biotinylated HER2ECDHis in the presence or absence of an excess of a second (competitor) HER2 antibody. The ELISA was then performed as described above. […] Percentage competition was then determined as 100 minus the percentage of inhibition.

[3] = target: T2, human epidermal growth factor receptor 2 (HER2), membrane-bound on cells (human, UniProt P04626 23-1255); experiment: cell-based or functional assay
[4] = target: T1, HER2ECDHis; experiment: ELISA; competitor tras
Experimental: as §1, §2

[5] = target: T1, HER2ECDHis; experiment: ELISA; competitor 050
Experimental: as §1, §2

[6] = target: T1, HER2ECDHis; experiment: ELISA; competitor pert
Experimental: as §1, §2

[7] = target: T1, HER2ECDHis; experiment: ELISA; competitor 153
Experimental: as §1, §2

[8] = target: T1, HER2ECDHis; experiment: ELISA; competitor 084
Experimental: as §1, §2

[9] = target: T1, HER2ECDHis; experiment: ELISA; competitor 169
Experimental: as §1, §2

[10] = target: T1, HER2ECDHis; experiment: ELISA; competitor 129
Experimental: as §1, §2

[11] = target: T2, human epidermal growth factor receptor …; experiment: cell-based or functional assay; remark: listed apart in the source
[12] = target: T1, HER2ECDHis; experiment: ELISA; competitor 098
Experimental: as §1, §2

[13] = target: T2, human epidermal growth factor receptor …; experiment: cell-based or functional assay; remark: listed apart in the source

Binder	% binding vs no competitor [1]	% binding vs no competitor [2]	% cells killed, A431, anti-kappa-ETA'-conjugated [3]	EC50 of cell kill, A431, anti-kappa-ETA'-conjugated [3]	% binding vs no competitor [4]	% binding vs no competitor [5]	% binding vs no competitor [6]	% binding vs no competitor [7]	% binding vs no competitor [8]	% binding vs no competitor [9]	% binding vs no competitor [10]	EC50, fab-CypHer5E internalization, AU565 [11]	Maximal MFI, fab-CypHer5E internalization, AU565 [11]	% binding vs no competitor [12]	% cells killed, AU565, anti-kappa-ETA'-conjugated [13]	EC50 of cell kill, AU565, anti-kappa-ETA'-conjugated [13]
B1	18%	21%	86.7%	~0.00977 µg/mL	98%	100%	8%	99%	104%	98%	15%	0.0301 µg/mL	63400 MFI	102%	60%	0.0167 µg/mL
B2	13%	15%	83.3%	~0.00986 µg/mL	99%	95%	5%	98%	100%	99%	78%	0.033 µg/mL	50700 MFI	98%	50.6%	0.0465 µg/mL
B3	104%	98%			13%	12%	95%	104%	74%	30%	110%			102%	52.4%	0.0127 µg/mL
B4	55%	76%	75.9%	~0.0106 µg/mL	93%	97%	22%	98%	92%	99%	12%	0.00715 µg/mL	60300 MFI	106%	60.8%	0.0309 µg/mL
B5	98%	105%	34%		19%	21%	101%	102%	73%	45%	106%		38800 MFI	105%	49.9%	0.0356 µg/mL
B6	106%	104%	50.5%		74%	76%	101%	98%	20%	73%	104%	0.0305 µg/mL	71100 MFI	109%	58.1%	0.027 µg/mL
